Paper PMC8409985

Target: truncated human ACE2 ectodomain (residues 19–613) with C-terminal AVI-tag and 6xHis-tag, biotinylated (human) (UniProt Q9BYF1)
Assay: BLI

SARS-CoV-2 RBD variant S477N (from UniProt P0DTC2 319-541) (domain or fragment)
t1/2: 2.68 min
